Experimental data taken from US20250289897A1 (Eli Lilly, published 2025).
Substitutions are numbered along the chain they refer to. One block for each binder: values may come before it.

Tests used:
[1] = biological target: T1, cynomolgus monkey LEPR, full length, on HEK293-STAT3Luc-cmLepR2 cells (Macaca fascicularis); experiment: flow cytometry on live HEK293-STAT3Luc-cmLepR2 cells, AF647 anti-human IgG; average of 4 runs, SD 0.7
T1 construct: whole, on cells; also called cyno-LEPR; Macaca fascicularis LEPR

canine LEPR-ECD-His [2] = biological target: T2, canine LEPR-ECD-His (canine); experiment: SPR (Biacore T200), antibody captured on Protein A/G chip, His-tagged LEPR-ECD as analyte, 1:1 fit; mean n=3, SD 2.4E-8
T2 chain: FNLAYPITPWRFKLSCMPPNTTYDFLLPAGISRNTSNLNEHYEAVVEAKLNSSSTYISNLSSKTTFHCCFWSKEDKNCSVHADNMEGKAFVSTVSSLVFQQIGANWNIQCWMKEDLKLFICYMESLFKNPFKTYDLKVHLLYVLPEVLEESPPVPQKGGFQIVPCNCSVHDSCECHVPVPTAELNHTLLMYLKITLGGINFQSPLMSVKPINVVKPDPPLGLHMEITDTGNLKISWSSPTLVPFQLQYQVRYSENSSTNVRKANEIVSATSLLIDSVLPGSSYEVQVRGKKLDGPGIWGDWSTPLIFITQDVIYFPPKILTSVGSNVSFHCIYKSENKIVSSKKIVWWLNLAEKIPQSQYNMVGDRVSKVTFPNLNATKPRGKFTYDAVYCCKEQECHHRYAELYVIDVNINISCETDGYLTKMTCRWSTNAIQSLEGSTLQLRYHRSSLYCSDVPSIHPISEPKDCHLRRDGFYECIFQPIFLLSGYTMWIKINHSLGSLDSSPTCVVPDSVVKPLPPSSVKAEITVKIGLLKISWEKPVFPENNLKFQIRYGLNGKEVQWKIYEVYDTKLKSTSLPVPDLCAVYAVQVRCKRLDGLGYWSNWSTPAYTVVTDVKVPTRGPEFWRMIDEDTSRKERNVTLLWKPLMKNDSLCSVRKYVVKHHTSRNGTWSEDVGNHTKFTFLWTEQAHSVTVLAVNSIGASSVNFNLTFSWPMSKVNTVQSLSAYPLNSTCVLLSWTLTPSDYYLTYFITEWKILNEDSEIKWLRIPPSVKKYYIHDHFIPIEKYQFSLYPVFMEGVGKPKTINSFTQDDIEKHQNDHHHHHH

[3] = biological target: T1, cynomolgus monkey LEPR, full length, on …; experiment: flow cytometry on live HEK293-STAT3Luc-cmLepR2 cells, AF647 anti-human IgG; average of 4 runs, SD 0.6
canine LEPR-ECD-His [4] = biological target: T2, canine LEPR-ECD-His; experiment: SPR (Biacore T200), antibody captured on Protein A/G chip, His-tagged LEPR-ECD as analyte; summary sentence of Table 3
canine LEPR-ECD-His [5] = biological target: T2, canine LEPR-ECD-His; experiment: SPR (Biacore T200), antibody captured on Protein A/G chip, His-tagged LEPR-ECD as analyte, 1:1 fit; mean n=2, SD 1.9E-8
human LEPR-ECD-His = biological target: T3, human LEPR-ECD-His (human, UniProt P48357 22-839); experiment: SPR (Biacore T200), antibody captured on Protein A/G chip, His-tagged LEPR-ECD as analyte, 1:1 fit; mean n=3, SD 6.8E-9
T3 sequence: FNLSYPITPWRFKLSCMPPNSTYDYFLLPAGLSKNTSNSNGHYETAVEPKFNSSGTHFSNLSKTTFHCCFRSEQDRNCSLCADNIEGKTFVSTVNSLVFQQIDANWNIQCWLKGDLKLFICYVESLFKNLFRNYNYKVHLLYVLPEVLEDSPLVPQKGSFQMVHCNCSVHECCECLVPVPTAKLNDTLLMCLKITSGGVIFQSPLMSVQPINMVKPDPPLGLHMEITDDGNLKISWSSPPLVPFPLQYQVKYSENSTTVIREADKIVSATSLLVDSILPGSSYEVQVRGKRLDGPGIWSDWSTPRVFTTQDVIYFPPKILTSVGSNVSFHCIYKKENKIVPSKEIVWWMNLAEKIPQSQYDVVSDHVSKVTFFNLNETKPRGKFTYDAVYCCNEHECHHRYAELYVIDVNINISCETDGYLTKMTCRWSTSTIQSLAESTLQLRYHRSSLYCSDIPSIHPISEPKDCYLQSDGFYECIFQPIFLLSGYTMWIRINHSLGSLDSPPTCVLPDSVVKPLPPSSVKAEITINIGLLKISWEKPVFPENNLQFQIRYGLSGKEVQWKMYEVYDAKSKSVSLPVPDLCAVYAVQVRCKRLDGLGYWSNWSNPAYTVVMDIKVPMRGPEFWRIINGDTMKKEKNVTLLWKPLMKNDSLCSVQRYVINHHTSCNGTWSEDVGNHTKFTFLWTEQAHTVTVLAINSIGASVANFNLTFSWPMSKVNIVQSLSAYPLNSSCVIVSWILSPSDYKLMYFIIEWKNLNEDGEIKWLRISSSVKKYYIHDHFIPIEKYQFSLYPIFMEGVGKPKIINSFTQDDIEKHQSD

EC50 [1]: 0.74 nM | Kd (canine LEPR-ECD-His [2]): 130 nM
B1: Antibody A (antibody, human IgG1, kappa, L234A L235A)
heavy: EVQLLESGGGLVQPGGSLRLSCAASGFTFSSFAMSWVRQAPGKGLEWVSAISGSGGSTYSADSVRGRFTISRDNSKNTLYLQMNSLRAEDTAVYYCAKDQGDWDFLFDYWGQGTLVTVSSASTKGPSVFPLAPSSKSTSGGTAALGCLVKDYFPEPVTVSWNSGALTSGVHTFPAVLQSSGLYSLSSVVTVPSSSLGTQTYICNVNHKPSNTKVDKRVEPKSCDKTHTCPPCPAPEAAGGPSVFLFPPKPKDTLYITREPEVTCVVVSVSHEDPEVKFNWYVDGVEVHNAKTKPREEQYNSTYRVVSVLTVLHQDWLNGKEYKCKVSNKALPAPIEKTISKAKGQPREPQVYTLPPSREEMTKNQVSLTCLVKGFYPSDIAVEWESNGQPENNYKTTPPVLDSDGSFFLYSKLTVDKSRWQQGNVFSCSVMHEALHNHYTQKSLSLSPGK
light: DIQMTQSPSFLSASVGDRVTITCRASQGISSSLAWYQQKPGKAPKLLIYTASTLQSGVPSRFSGSGSGTEFTLTISSLQPEDFATYYCQQLIYYPFTFGQGTKVEIKRTVAAPSVFIFPPSDEQLKSGTASVVCLLNNFYPREAKVQWKVDNALQSGNSQESVTEQDSKDSTYSLSSTLTLSKADYEKHKVYACEVTHQGLSSPVTKSFNRGEC
notes: IgG1 mAb

EC50 [3]: 0.83 nM | binding result (canine LEPR-ECD-His [4]): binds
B2: Antibody C (antibody, human IgG1, kappa, L234A L235A, V domains shown)
VH: EVQLLESGGGLVQPGGSLRLSCAASGFTFSSFAMSWVRQAPGKGLEWVSAISGSGGSTYSADSVRGRFTISRDNSKNTLYLQMNSLRAEDTAVYYCAKDQGDWDFLFDYWGQGTLVTVSS
VL: DIQMTQSPSFLSASVGDRVTITCRASQGISSSLAWYQQKPGKAPKLLIYTASTLQSGVPSRFSGSGSGTEFTLTISSLQPEDFATYYCQQLNYYPFSFGQGTKVEIKR

Kd (canine LEPR-ECD-His [5]): 330 nM | Kd (human LEPR-ECD-His): 22 nM
B3: Antibody B (antibody, human IgG1, kappa, L234A L235A, V domains shown)
VH: B2 VH
VL: B2 VL with A25V, S97T
